The text below walks through data of article PMC6735628.

In test [1] the target is native LIC11711 (L. interrogans serovar Copenhageni (endogenous in strain M20)). Nature of the test: western blot of cell extracts; L. interrogans M20 cells treated with proteinase K for 0, 1 and 3 h, extracts blotted and probed with antiserum against rLIC11711. Background: A western blot detects proteins with antibodies after separation by electrophoresis.
In a further test the target is vitronectin (human). The experiment in a line: ELISA; vitronectin (250 ng/well) coated, 5 uM recombinant protein plus increasing heparin, 2 h at 37 C; HRP anti-His MAbs. (In general: ELISA stands for enzyme-linked immunosorbent assay.)
A further test deals with plasminogen (human). The experiment in a line: ELISA; time course: 1 ug PLG coated, 1 ug recombinant protein for 5, 15, 30, 60 and 120 min; anti-His MAbs; percent of the 120 min value.
Test [2] concerns the target recombinant protein LIC11711 (L. interrogans serovar Copenhageni (strain M20 genomic DNA)). The experiment in a line: non-reducing SDS-PAGE with western blot; purified recombinant proteins, non-reducing against reducing treatment (beta-mercaptoethanol and heating at 96 C); probed with anti-His MAbs or polyclonal antisera.
A further test concerns the target E-cadherin (UniProt P12830). Nature of the test: ELISA; dose-response: 1 ug host component or BSA coated, increasing recombinant protein (0-20 uM); HRP anti-His MAb; KD by non-linear regression in GraphPad Prism 6.
Test [3] has as its target complement component C9 (human) (UniProt P02748). Described as above.
UniProt P02748, sequence (P02748 22-559): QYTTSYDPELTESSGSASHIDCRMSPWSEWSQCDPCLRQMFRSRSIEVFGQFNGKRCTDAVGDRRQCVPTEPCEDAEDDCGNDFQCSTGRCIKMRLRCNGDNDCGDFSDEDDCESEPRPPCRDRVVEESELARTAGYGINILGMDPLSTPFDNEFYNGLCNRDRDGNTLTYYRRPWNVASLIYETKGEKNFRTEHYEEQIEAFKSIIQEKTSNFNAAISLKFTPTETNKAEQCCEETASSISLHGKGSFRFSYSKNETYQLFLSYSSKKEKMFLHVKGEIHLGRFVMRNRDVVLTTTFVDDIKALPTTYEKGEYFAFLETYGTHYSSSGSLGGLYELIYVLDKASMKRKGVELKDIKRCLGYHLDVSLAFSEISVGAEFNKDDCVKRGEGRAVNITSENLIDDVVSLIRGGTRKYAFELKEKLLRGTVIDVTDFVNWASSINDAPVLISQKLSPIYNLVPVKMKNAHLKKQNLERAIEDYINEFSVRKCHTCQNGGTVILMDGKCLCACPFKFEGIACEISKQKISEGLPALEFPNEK
Test [4] deals with complement component C8 (human) (UniProt P07357). The description is as above.
UniProt P07357, sequence (P07357 31-584, chain 1 of 3): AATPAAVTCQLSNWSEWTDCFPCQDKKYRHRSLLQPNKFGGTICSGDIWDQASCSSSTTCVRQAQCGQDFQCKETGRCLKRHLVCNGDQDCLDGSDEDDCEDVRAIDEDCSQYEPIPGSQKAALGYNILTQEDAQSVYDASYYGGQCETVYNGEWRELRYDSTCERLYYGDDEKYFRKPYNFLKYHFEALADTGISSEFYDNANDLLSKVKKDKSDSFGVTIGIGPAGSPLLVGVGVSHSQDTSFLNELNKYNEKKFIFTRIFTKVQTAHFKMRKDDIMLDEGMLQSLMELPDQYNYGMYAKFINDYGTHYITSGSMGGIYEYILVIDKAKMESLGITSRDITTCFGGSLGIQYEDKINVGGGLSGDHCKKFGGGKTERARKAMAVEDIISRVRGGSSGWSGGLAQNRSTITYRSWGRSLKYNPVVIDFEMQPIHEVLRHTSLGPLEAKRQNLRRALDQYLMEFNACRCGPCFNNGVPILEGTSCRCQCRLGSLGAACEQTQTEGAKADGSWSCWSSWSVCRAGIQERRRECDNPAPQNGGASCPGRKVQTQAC
UniProt P07357, sequence (P07358 55-591, chain 2 of 3, further chain): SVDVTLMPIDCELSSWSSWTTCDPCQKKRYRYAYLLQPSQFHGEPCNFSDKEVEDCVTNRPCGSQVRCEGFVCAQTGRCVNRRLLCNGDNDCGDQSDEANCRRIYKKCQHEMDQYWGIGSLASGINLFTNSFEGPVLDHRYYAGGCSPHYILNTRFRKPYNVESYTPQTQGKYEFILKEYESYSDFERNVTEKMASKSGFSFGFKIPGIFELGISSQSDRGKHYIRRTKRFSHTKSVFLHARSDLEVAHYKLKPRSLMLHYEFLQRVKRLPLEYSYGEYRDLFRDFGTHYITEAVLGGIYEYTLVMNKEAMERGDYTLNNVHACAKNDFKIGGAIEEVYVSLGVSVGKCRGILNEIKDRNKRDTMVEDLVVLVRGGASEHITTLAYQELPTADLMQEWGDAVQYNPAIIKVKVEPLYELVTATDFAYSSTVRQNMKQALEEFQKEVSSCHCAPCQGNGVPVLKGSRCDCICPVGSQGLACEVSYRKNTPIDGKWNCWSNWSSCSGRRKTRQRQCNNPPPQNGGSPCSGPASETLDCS
UniProt P07357, sequence (P07360 21-202, chain 3 of 3, further chain): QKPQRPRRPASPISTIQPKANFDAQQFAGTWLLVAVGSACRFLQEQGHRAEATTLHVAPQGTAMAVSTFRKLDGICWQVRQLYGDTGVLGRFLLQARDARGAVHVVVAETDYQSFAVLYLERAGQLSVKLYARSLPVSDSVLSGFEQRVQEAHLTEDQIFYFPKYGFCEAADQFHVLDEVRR
In test [5] the target is complement component C7 (human) (UniProt P10643). The test is described as above.
UniProt P10643, sequence (P10643 23-843): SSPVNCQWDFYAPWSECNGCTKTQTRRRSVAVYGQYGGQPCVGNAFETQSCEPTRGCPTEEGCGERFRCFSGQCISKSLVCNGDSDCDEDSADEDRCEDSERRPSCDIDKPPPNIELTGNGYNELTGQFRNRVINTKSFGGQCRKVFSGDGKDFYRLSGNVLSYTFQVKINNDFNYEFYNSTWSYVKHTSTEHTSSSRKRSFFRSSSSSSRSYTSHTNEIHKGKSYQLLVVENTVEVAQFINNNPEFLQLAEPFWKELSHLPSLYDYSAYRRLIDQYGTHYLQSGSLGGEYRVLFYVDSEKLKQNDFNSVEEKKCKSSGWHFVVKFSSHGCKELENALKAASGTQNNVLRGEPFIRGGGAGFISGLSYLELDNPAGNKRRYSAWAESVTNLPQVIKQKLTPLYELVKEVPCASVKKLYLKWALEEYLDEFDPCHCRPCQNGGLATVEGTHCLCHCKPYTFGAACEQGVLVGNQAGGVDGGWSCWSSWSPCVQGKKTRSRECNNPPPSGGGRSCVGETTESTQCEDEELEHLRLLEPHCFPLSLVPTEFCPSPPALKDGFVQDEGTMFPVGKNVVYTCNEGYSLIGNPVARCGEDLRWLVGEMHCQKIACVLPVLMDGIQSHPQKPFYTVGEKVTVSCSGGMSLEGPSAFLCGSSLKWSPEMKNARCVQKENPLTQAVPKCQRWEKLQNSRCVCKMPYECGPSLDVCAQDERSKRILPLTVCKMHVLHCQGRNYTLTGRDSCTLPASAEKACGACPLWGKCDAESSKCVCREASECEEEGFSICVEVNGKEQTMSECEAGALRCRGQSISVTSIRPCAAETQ

A word on the stoichiometry N: it is the number of molecules, sites or subunits per partner or assembly. In test [1], native LIC11711 (natural protein) came in with a stoichiometry N of 2.
One may read the Kd as the constant that tells how readily two partners part at equilibrium. Take “recombinant protein LIC11711 (natural protein)”: in the test with vitronectin (human), the percent reduction of binding with 10 ug/well heparin was found to be 40% and the percent reduction of binding with 100 ug/well heparin came to 54%. The percent of the maximal binding (2 h) reached at 5 min in the test with plasminogen (human) was 40%. Also, the stoichiometry N in test [2] amounted to 2. For the same substance, the Kd with E-cadherin came to 3.82 µM.
For the substance “recombinant protein LIC12587 (natural protein)”, in the test with vitronectin (human), the percent reduction of binding with 10 ug/well heparin was found to be 10%. Besides, in the test with vitronectin (human), the percent reduction of binding with 100 ug/well heparin amounted to 51%. Also, the Kd in test [3] was 0.63 µM; in test [4], 0.47 µM; in test [5], 1.95 µM.
